Measured values taken from PMC9482650, “Quantitative fragmentomics allow affinity mapping of interactomes” (Nature Communications, 2022).

T1: CNKSR1, Q969H4
T1 sequence (Q969H4 191-295, limits assumed, looked up): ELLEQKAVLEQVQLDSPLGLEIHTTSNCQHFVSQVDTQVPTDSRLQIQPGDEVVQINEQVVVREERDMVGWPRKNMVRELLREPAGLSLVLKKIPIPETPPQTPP

T2: APBA3_2, O96018
T2 sequence (O96018 480-570, limits assumed, looked up): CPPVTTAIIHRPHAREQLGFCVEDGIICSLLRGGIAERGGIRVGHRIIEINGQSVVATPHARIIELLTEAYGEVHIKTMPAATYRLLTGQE

T3: SHANK3, Q9BYB0
T3 sequence (Q9BYB0 641-750, limits assumed, looked up): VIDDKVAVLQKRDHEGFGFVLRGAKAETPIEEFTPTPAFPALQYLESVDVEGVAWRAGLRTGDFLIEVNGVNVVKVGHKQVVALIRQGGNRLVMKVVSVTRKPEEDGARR

T4: PARD6B, Q9BYG5
T4 sequence (Q9BYG5 152-260, limits assumed, looked up): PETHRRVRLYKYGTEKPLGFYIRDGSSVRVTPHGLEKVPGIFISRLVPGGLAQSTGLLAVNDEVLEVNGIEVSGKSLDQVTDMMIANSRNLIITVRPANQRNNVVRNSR

T5: PARD6G, Q9BYG4
T5 sequence (Q9BYG4 153-261, limits assumed, looked up): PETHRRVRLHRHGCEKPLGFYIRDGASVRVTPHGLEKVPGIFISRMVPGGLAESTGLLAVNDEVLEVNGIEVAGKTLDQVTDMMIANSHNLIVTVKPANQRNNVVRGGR

T6: MPDZ_6, O75970
T6 sequence (O75970 1003-1099, limits assumed, looked up): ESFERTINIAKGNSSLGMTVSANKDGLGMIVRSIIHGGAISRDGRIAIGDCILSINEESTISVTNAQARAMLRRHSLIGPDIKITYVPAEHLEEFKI

T7: PTPN13_4, Q12923
T7 sequence (Q12923 1783-1878, limits assumed, looked up): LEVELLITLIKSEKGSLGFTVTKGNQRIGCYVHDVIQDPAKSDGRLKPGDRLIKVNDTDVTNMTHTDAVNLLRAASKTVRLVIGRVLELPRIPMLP

T8: PDZD8, Q8NEN9
T8 sequence (Q8NEN9 361-459, limits assumed, looked up): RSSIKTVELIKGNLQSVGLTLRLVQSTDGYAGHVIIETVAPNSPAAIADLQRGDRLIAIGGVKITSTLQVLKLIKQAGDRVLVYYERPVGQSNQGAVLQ

T9: USH1C_1, Q9Y6N9
T9 sequence (Q9Y6N9 82-179, limits assumed, looked up): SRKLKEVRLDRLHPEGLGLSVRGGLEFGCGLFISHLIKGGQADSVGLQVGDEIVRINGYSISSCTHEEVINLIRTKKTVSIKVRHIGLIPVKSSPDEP

T10: NHERF1_1, O14745
T10 sequence (O14745 9-104, limits assumed, looked up): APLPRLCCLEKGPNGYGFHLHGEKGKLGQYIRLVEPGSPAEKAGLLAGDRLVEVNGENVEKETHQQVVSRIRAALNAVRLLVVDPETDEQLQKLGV

T11: PDZD7_1, Q9H5P4
T11 sequence (Q9H5P4 81-178, limits assumed, looked up): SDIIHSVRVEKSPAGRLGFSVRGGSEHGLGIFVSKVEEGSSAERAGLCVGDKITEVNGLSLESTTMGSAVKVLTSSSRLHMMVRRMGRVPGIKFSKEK

T12: PDLIM3, Q53GG5
T12 sequence (Q53GG5 1-94, limits assumed, looked up): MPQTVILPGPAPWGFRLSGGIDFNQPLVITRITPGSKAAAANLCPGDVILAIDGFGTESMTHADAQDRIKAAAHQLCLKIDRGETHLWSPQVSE


Experiments:
Assay in all cases: holdup assay
Design in all cases: key: below the threshold = too weak to quantify, mostly under pKd 3.1 to 4
Conditions in all cases: plain residues with an end cap or a label only (N-terminal biotin on a linker: ttds)
Q96HC4 = target: Q96HC4
CNKSR1, Q969H4 = target: T1, CNKSR1, Q969H4
MAGI1_5, Q96QZ7 = target: MAGI1_5, Q96QZ7
APBA3_2, O96018 = target: T2, APBA3_2, O96018
GIPC3, Q8TF64 = target: GIPC3, Q8TF64
SHANK3, Q9BYB0 = target: T3, SHANK3, Q9BYB0
RIMS2, Q9UQ26 = target: RIMS2, Q9UQ26
PARD6B, Q9BYG5 = target: T4, PARD6B, Q9BYG5
PARD6G, Q9BYG4 = target: T5, PARD6G, Q9BYG4
MPDZ_6, O75970 = target: T6, MPDZ_6, O75970
PTPN13_4, Q12923 = target: T7, PTPN13_4, Q12923
PDZD8, Q8NEN9 = target: T8, PDZD8, Q8NEN9
GRIP2_2, Q9C0E4 = target: GRIP2_2, Q9C0E4
USH1C_1, Q9Y6N9 = target: T9, USH1C_1, Q9Y6N9
O00233 = target: O00233
PARD3B_2, Q8TEW8 = target: PARD3B_2, Q8TEW8
NHERF1_1, O14745 = target: T10, NHERF1_1, O14745
Q96JY6 = target: Q96JY6
SCRIB_4, Q14160 = target: SCRIB_4, Q14160
PTPN13_2, Q12923 = target: PTPN13_2, Q12923
PDZD7_1, Q9H5P4 = target: T11, PDZD7_1, Q9H5P4
Inadl_7, Q8NI35 = target: Inadl_7, Q8NI35
MAGI1_6, Q96QZ7 = target: MAGI1_6, Q96QZ7
PDLIM3, Q53GG5 = target: T12, PDLIM3, Q53GG5
RIMS1, Q86UR5 = target: RIMS1, Q86UR5
Sequence of RIMS1, Q86UR5 (Q86UR5 584-692): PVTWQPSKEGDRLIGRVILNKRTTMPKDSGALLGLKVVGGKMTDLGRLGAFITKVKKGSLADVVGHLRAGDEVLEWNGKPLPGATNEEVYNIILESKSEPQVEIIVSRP

Sequence of MAGI1_5, Q96QZ7 (Q96QZ7 986-1098): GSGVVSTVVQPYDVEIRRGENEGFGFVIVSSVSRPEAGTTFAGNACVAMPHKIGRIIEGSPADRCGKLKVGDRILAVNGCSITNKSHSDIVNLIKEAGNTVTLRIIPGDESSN
Sequence of GIPC3, Q8TF64 (Q8TF64 107-202): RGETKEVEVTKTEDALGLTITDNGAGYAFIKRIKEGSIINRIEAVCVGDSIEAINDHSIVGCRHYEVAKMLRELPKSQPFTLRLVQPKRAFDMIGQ
Sequence of MAGI1_6, Q96QZ7 (Q96QZ7 1146-1238): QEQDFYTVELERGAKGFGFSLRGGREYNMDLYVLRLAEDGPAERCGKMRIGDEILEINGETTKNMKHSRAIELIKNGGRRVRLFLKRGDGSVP
Sequence of SCRIB_4, Q14160 (Q14160 1095-1204): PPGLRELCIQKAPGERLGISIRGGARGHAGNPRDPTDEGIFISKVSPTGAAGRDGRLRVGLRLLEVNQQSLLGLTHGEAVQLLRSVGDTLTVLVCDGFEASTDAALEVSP
Sequence of GRIP2_2, Q9C0E4 (Q9C0E4 137-245): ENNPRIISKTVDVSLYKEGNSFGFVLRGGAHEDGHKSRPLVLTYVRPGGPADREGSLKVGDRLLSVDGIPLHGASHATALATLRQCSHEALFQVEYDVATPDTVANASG
Sequence of PTPN13_2, Q12923 (Q12923 1363-1462): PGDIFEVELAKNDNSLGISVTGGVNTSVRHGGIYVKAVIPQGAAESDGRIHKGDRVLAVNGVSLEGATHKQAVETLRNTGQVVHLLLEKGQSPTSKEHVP
Sequence of Inadl_7, Q8NI35 (Q8NI35 1219-1332): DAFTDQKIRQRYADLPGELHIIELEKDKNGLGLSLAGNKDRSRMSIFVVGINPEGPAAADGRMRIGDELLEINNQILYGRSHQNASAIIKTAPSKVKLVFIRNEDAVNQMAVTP
Sequence of RIMS2, Q9UQ26 (Q9UQ26 637-758): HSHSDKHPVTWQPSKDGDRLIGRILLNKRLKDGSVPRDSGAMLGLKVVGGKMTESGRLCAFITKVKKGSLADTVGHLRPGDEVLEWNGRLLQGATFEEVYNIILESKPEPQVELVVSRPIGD
Sequence of PARD3B_2, Q8TEW8 (Q8TEW8 376-471): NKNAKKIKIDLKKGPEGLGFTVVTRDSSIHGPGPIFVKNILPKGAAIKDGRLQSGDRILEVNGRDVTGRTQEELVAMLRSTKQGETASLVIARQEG

Row | pKd (Q96HC4) | pKd (CNKSR1, Q969H4) | pKd (MAGI1_5, Q96QZ7) | pKd (APBA3_2, O96018) | pKd (GIPC3, Q8TF64) | pKd (SHANK3, Q9BYB0) | pKd (RIMS2, Q9UQ26) | pKd (PARD6B, Q9BYG5) | pKd (PARD6G, Q9BYG4) | pKd (MPDZ_6, O75970) | pKd (PTPN13_4, Q12923) | pKd (PDZD8, Q8NEN9) | pKd (GRIP2_2, Q9C0E4) | pKd (USH1C_1, Q9Y6N9) | pKd (O00233) | pKd (PARD3B_2, Q8TEW8) | pKd (NHERF1_1, O14745) | pKd (Q96JY6) | pKd (SCRIB_4, Q14160) | pKd (PTPN13_2, Q12923) | Binder | further results
1 | below the threshold | below the threshold | 4.66 | 4.21 | below the threshold | below the threshold | below the threshold | below the threshold | below the threshold | below the threshold | below the threshold | below the threshold | below the threshold | below the threshold | below the threshold | below the threshold | below the threshold | below the threshold | 4.38 | 4.45 | SSLQSLETSV [ATP2B4, P23634] | pKd (PDZD7_1, Q9H5P4): below the threshold; pKd (Inadl_7, Q8NI35): below the threshold; pKd (MAGI1_6, Q96QZ7): 4.49; pKd (PDLIM3, Q53GG5): below the threshold; pKd (RIMS1, Q86UR5): below the threshold
2 | below the threshold | below the threshold | below the threshold | below the threshold | 4.39 | below the threshold | below the threshold | below the threshold | below the threshold | below the threshold | below the threshold | below the threshold | 4.25 | below the threshold | below the threshold | below the threshold | below the threshold | below the threshold | below the threshold | below the threshold | RPLPRKVSQL [DOCK4, Q8N1I0] | pKd (PDZD7_1, Q9H5P4): 4.33; pKd (Inadl_7, Q8NI35): 4.45; pKd (MAGI1_6, Q96QZ7): below the threshold; pKd (PDLIM3, Q53GG5): below the threshold; pKd (RIMS1, Q86UR5): below the threshold
3 | below the threshold | below the threshold | 4.5 | 4.47 | below the threshold | below the threshold | below the threshold | below the threshold | below the threshold | below the threshold | below the threshold | below the threshold | below the threshold | below the threshold | below the threshold | below the threshold | below the threshold | below the threshold | 4.85 | 4.31 | RLPKIKETTV [FRMPD4, Q14CM0] | pKd (PDZD7_1, Q9H5P4): below the threshold; pKd (Inadl_7, Q8NI35): below the threshold; pKd (MAGI1_6, Q96QZ7): 4.57; pKd (PDLIM3, Q53GG5): 4.24; pKd (RIMS1, Q86UR5): below the threshold
